From the domain aggregation screens of Martell et al. (2025)

test: soluble fraction after stress (log2 fold change); higher = more stays soluble; pooled small domains, quantitative proteomics; settings: stress: pH 4
Procedure, shortened: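 Aggregation propensity is read out as the fold change in how much of each domain remains soluble after acid stress. The custom small-domain libraries were pooled, held at pH 4 and analysed with high-throughput quantitative proteomics. On the log2 scale used, higher values mean more of the domain stayed soluble.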

| Sequence | soluble fraction (log2) |
| --- | --- |
| HMAPASADQLIDQLNEKVKAKDDKGVAALLTAAQTKMAELAQKDPKEAQAYVAKLQQWMQSNSENIKAALK | 0.204 |
| HMAPAYELTEEETKIIEILKANENIDLNELKSQAALSGKKWDKSMKNLAKYNLTKVTVDGDAKTVAYLA | -0.516 |
| HMAPELSGEKLWDAQDVAMFLRVKPTTVWSYVSRDGFPAPVSQAGRAGMWSEPLVVQWYLSRPG | -0.16 |
| HMAPEPFILSVDADGKYYIDDLEKTKQEILIYATALYQEKPTTDFLVRGDKSAAYNDVLQAMVVLKE | 0.171 |
| HMAPETALQILEQIQINPKVTMTDLANLTGYSRRWVAQTMKQLQELNVIKRVGSTKTGYWEIIA | -0.142 |
| HMAPGSKAEIPEDLMKVINKDPKMKAFVATLNKANIMAISFRLSTAKKPETRERRFNLILETLKRGEKF | -0.644 |
| HMAPKVTLNETETAIFEKMQQEKQLLLSELRTHFDISNKLWDTSIKTLTKNQLLTVSKEADLLWIKL | -0.935 |
| HMAPLAVIFPEPWRGMIAPEKLEGLTQALSLNPRPGYQHDPTRRYGVSLDGLDVRFTIDGDTLTVVEVVT | -1.12 |
| HMAPNKLQQQEVWTKALPLLQQMIMTIRQIDAAGGDSSPERELLEETAARFDETLDVERFLP | -0.774 |
| HMAPPPLAGAREALREQIRRGSLSARRGFDAYADALGLPAGTRGAHPIFAALQRLDYPQALRLLDQEPT | -0.108 |
| HMAPQVKIPNLVDVSQRQAEAILNSYGLKVGHLIYKPDLAKDAVLGFMFNGRSLKAGDELAKGSSIDLILG | 0.192 |
| HMAPRDKADKYVAAGIAEELVPILQKVGYYLVTDLKDVKAQKIQQQIGEIIKKYKLDIEKPSVQDIEGWN | -0.259 |
| HMAQDIEQLEKAVSFYTRMDPAAAALSITNLDQKTAVNILMRMKDKQASAVLESMTAERSSELIDSIARK | -0.863 |
| HMAQELPYEKVTMNGKMFYVYHVKAGEGLYLISRTFSVNADEILKFNPSIENGLKSGQVLYIPIK | -0.403 |
| HMAQISDESALYDLVKSVLDANPQSIADYKAGRDRALGFLMGQAMKLSKGKANPPVINKILKEMLDK | 0.292 |
| HMAQKQLYIAGTDYTKNSTSQLVLAYFPAKPSSIKIFFDGIYQNKDKWSLFGKTIIFGLPISSNAVEVHYE | -0.201 |
| HMAQLPADLSKVKSSQISDQQLTQIAQQAKNSGQSEQAVLQELKQRGLPDTEIQALGARISGLMQ | 0.404 |
| HMAQLVVTVDKLNKRTAIPVTLSDKSSNDSVVEKGFRFEGFPFVNTATNGKKWYKDREGFFYWAGGLMEEA | -0.0297 |
| HMAQMDDPEMVLHIYNKMIQQRLFDTAVGYSYLKDLQEYLQSIPFIRKEDIFPIPVQHPQVEESLRKAK | 0.0635 |
| HMAQTSAELIIEYLKRNDGFMELTDKSPADEIYETFGISKKNFKMAVGSLYKNRVIEIGQNGIRLVE | -0.0445 |
| HMAQTTKWREIHKVKRKETIFGIARDNGLTVDELIEANPEMTKPGYELKKGDFIYIPFPSKNIDTNAGTQT | -0.627 |
| HMARAESYGDIARLEQLLDEHANIAALDPGKLPAVRQQIWTLMRAARMDHDLGLAERPEDDSFDDMLLHV | -0.0475 |
| HMARAPIYPDGLTQREVEVLSLVAAGKTDREIAEELFIALRTVTTHVGNILNKIGAANRTEAAGYATRQGL | -1.4 |
| HMARAVSPLEAIPGVGPRRRQQLLKQLGGMQEVARAGVEDLSRVPGISRALAQQIYDAFHGD | 0.0348 |
| HMARDPWDVLGVAKTATNDEIKRAFKRQAMMTHPDKQGGSEERFKEVNEAYSHIKDEQSRAKYQNSQ | 0.0164 |
| HMARDSYNGVQRTISTLLGQGNYDRAYDVAVGARGQMSKQQWSDVAKRIYEVSGIKIDDSVKY | -0.0224 |

| Sequence | soluble fraction (log2) |
| --- | --- |
| HMARRSRADAVRNREALIDAAKAAFTEAGPDVSLEEIARRAGVGIGTLYRHFPTRDAVIEAVYR | -0.206 |
| HMARRTPPPTVSELNALLRVAAPHIQRVILLGIYTGARIGPSELFSLKWDDVDLTRGVIGIRL | -0.39 |
| HMARTDVKLREVAQELLRMGLLEESLRPHLYRTALASMERLNATLEPLDLIARADEIRGLVFLAVRH | -0.548 |
| HMARVSGIDLPKNKRGYIGLTYIYGIGRSTALHILNSAGVDPEKKVHEWNDDETTAIRNIINAEIKVEGAL | -0.248 |
| HMASAKTVAQSGTYKFAKTTAIKSSASDAASTVGTYYKGNTVNYNAKVTTNGQTWLRYTSYSGAQYYVKVS | 0.218 |
| HMASANMPDVLGLDAETAKQVLAAKGFTKVEIYPMESSEPANRVVRQSEDRDTMVALTKEILLGVSNGS | -0.0377 |
| HMASENISYSQFINQVKNSMVESVSIEADGKTISGKYKSGSSFVTYGLNDPKLVDDLLSNNVEIL | 0.0122 |
| HMASGLITEEQAKSKALAHAGLSASQVNFIWVKQDWEDGRRVYEVEFYTDDYQEYDYEIDARTGEILSFDY | -1.06 |
| HMASIGTATVTADNLRLRSEAGTGAETLTMAPKGAEVTVEEDAGDGWYKVTYGDTEGYMSGEWLKITLA | -0.0742 |
| HMASLIGEEKALQIALEHAGVALENVAYSQVKLENDDGRWEYDTEFYSGSKEYDYEIDASTGEILGYDHD | -0.0579 |
| HMASLSITVNGETRRAAPGSIADLVRAIGLDPAKVAVERNGEIAPRSTLADVALADGDVLEIVHFVG | 0.147 |
| HMASMEDILAEAKTKFQEGDLFKSVNEGIQGTHKLTLPLRIKESRIVDASGAAVYREGIWATVDK | 0.185 |
| HMASMNPVWLEFPNIPWGSAGWRMGWGEDYMRRWAKWYISLAEVERQSYKSDWPEPQEWEGFYAFMEHGT | -1.23 |
| HMASPEIAFLNKFYQLSNTVNEISVMKIVKNYQEKYQQRISIEQMAKTLKTMGYAVRNNIISNIEEAPV | 0.0906 |
| HMASPRVWKDASSGRTLTGEFVELTKDAVKVRRANGDVVSLPLSRLTEEDITFAKGASETGGA | 0.0565 |
| HMASVLTAKLSEREVDVLNLLARGFTNADIAAQLHLSEGTVRNHVSTIFAKLDVNDRTQAAVIAIRHGL | -0.176 |
| HMASVLTGMLGRVTGELAPKGIVMVGNETWTAVSEDDSVIRIGEPVEVRSVEGLILTVFRRID | -1.55 |
| HMATAADLLQSATGVPRSDALLLLAKLLGVAKERLIAHPETVVSEKTQATFSDWIERVRGGFPTTYLLG | 0.0658 |
| HMATAEETTPLWARNRLSHAIFGPGSVTGEDERSFEVAFDNGDTLNFSKKSAHLYFTAMSSR | -0.808 |
| HMATARPPPPPESRVEVLFDGRWYAGTVVGGALDEHRATVFFDADRLSQVINFAETGIRVLGT | -0.575 |
| HMATEYIIPTVTNKKLEEAIGIAQLRGFEISVDEYKPSDIDEGTVLEQSPAAGTNAKQGDTISVTVSSG | -0.103 |
| HMATFTPYLVRITASVLNIRKGPGTTYAVTGQIKDRGVYTIVEQKGNWGRLKSGAGWISLSYTKK | 0.065 |
| HMATPAFEMYKVRRGDTPAGLAKEWGFPDMASFYRINPDARSDWKRGLQLVKPMNEMAVLQATA | 0.109 |
| HMATPKYMELVRWINEQIESKNLVPGQKMYSENTLKEMFGVSRQTVRHAIGVLENEGVIRRIQGSGTYIN | 0.163 |
| HMATPSTGQVSVVRLNLRVSPSISSPVVTRLTQGDTVKILAASDDGRWYKVATADGRTGWLYTIYITAE | -0.209 |
| HMATQTGTVKWFNEGKGFGFIAPDDGSKDLFAHFSEIKTTGFKTLAEAQRVEFEVTEGRKGLQASNIK | -0.244 |

| Sequence | soluble fraction (log2) |
| --- | --- |
| HMATRLPFGFAKRFGVLVEGKDDQITVYHKDGLQTAVILEIQRYLARPFRFEAVTPEEFERRLGLAYQS | -0.927 |
| HMATSNDTQITGSLALRFDGSGDTFTVNVNGDDKLEINTEGTVIYKPLTTAPTYVSGGLFFSSSGDFYVG | -0.163 |
| HMATTIDFTVGDDVQVMNGPLESFTGKVTELNEASQKVKVDVVMFGRVTNVELDFVQVKKIT | -0.531 |
| HMATTIEAPMPGKILDVKVNPGQAVSYGQVVLTMEAMKMETEIVAPADGTVASVLVKSGDMVETGAALVSL | -0.268 |
| HMATTMSADWRPSEDAVGILVNAEINARFIEDAIPEFVLYWRERGAVHGAWNSKFIEHIRRQWAKFSAS | -1.31 |
| HMATTPEETILEYINKNNRISKQEIADLMGITRDGVSYHIKKLRKNGLLEWIGSPSNGHWEIIE | -0.52 |
| HMATVHPIRIQGGMTTQQGGKTVWLWVSDEGRLMTEDEIAGESGGTVSSRMVRGVRVLTGTGVIYG | -0.57 |
| HMATVIDVATTLGRPITDPDEQRQVLNWIGKTERIISARLGDLAALDRQILADVISEVVARRARN | -0.726 |
| HMATVNIGNLTFTHKGDYASGTTYAKNDVVYYSTNGNAYIAKQATQGNAPTSTAHWDVFAAGSGG | 0.145 |
| HMAVDAASSTIGKNVEVSVANEKGDYENFNGKVKSASIKDGVVYLELELKDTGEIKEVPYSSLTKIT | 0.355 |
| HMAVDPSVLTRRERQALAWIARGLSNKEVARGLNLAESTVKVHVQSILRKLNLTSRVQAAVYAIEHGIDK | -0.0198 |
| HMAVFRVGDKVKSMEGMIGEVRGINGRLIQVATPYGLRDYYPHQITKVENPLAAAPAPLNEEA | 0.0157 |
| HMAVGVFQKEDGYWGYRFSIIVDGKTIARRKFTDENGSKLRTKSEAVKARAAAMVAARMERVS | 0.24 |
| HMAVIILDEPTLGLDPAVRISLWQAIQSARDSTMSAFLITTHYIKEVADYLSAVKILDHGREVASGNPSAL | -0.905 |
| HMAVKLELYRVFKEVAETGNISAAAKNLYISQSAVSQSIKQLETALQARLFARSPRGVTLTGEGQMLYQYV | -0.652 |
| HMAVKNAQIDVQQFFYSKSGEVDFGRKIKAIQSHFTPERLQSFTAAVPPSQWVSQLQVMWDSL | -1.68 |
| HMAVLGIQPVFHRSTGQTVYKSSVNTAKGRVYLGLFPTLTEALEIKLKYMQEHGHTKGITNLTNKLKEL | 0.22 |
| HMAVPFTIDVSQNGRYFIEEDNQVVEVSIGFLEDRFLRIIKSNPDIEVIIRGDAKASYESIAELLAVLQ | -0.782 |
| HMAVQPMDQVKAWLAEDNPADIKLLVPVLQKLDLLDYEQVRGEVADRAGVRKSLLDEAVKGN | -0.119 |
| HMAVRTELLALPAGWHGDASRLSTALAALQGVREAVVIASEGVAYLKVHGHDWDRDGARELLQN | -0.199 |
| HMAVSGRGSIIGGVATVLDDFADSGKVWLEGEAWQARSSVPLKQDQEVVVRAMDGLVLVVEPVA | -0.869 |
| HMAVSNWQKLVSSIQTQLKILALYHGPEDGIYGPNTRSAIMLYEENIGLPVTGEPSRELLAHMLDQTD | -0.194 |
| HMAVTNLTAKQISDTRWRVTWDSTLASPTYYVYRDGLLMMQTRQELYEFDAARGEQVQIDVLDDMAAAPAE | -0.459 |
| HMAWAVRAGEGVLIRAGQPGFSATTRGTALSNGAIGEGVRVRNLGSGKEIQAWVVDKGEVETR | 0.136 |
